The values that follow come from PMC7085222, “TBC1D25 Regulates Cardiac Remodeling Through TAK1 Signaling Pathway” (International Journal of Biological Sciences, 2020).

In assay [1] the target is T1, Flag-tagged TBC1 Domain Family Member 25 (TBC1D25) (UniProt Q3MII6-1 1-688).
T1 construct: Vector pcDNA5-flag or pHAGE-3xflag; The reverse primer carries the stop codon, so the tag is probably N-terminal; also called Flag-TBC1D25; OATL1; source: HEK-293T, transfected, in lysate (co-IP); immunopurified and eluted with FLAG peptide (GST pull-down)
T1 sequence (looked up): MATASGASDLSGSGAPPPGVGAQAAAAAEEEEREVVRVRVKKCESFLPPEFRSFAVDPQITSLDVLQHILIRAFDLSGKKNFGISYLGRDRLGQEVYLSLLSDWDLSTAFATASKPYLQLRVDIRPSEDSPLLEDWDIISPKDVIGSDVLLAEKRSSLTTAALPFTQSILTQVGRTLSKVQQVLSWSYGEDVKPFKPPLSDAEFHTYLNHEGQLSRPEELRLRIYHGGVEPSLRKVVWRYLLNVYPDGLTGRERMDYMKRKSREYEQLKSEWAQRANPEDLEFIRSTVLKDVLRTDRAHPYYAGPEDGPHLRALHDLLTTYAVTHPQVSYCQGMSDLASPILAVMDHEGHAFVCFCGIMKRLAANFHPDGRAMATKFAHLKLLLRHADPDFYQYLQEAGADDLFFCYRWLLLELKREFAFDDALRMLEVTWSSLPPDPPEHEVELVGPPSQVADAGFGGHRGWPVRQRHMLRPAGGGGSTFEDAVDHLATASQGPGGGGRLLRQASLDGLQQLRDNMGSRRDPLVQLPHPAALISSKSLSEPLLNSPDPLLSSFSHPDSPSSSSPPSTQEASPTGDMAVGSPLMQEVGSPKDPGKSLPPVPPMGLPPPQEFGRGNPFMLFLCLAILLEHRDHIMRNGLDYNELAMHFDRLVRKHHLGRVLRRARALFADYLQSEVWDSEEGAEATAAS
The experiment in a line: pull-down; GST-HA-tagged protein from E. coli extracts held on glutathione-sepharose 4B beads, washed with PBS, incubated 4 h at 4 C with immunopurified Flag-tagged protein; washed with NaCl wash buffer; Western blot; GST tag as negative control. The note with it: both partners purified.

In the next assay the target is T2, GST-HA-TBC1D25 (UniProt Q3MII6-1 1-688).
T2 construct: also called OATL1
T2 sequence (looked up): T1 sequence (looked up)
The assay is described as above. The note with it: both partners purified.

B1: GST-HA-TAK1 (enzyme, UniProt O43318-2 1-579, looked up)
chain: MSTASAASSSSSSSAGEMIEAPSQVLNFEEIDYKEIEVEEVVGRGAFGVVCKAKWRAKDVAIKQIESESERKAFIVELRQLSRVNHPNIVKLYGACLNPVCLVMEYAEGGSLYNVLHGAEPLPYYTAAHAMSWCLQCSQGVAYLHSMQPKALIHRDLKPPNLLLVAGGTVLKICDFGTACDIQTHMTNNKGSAAWMAPEVFEGSNYSEKCDVFSWGIILWEVITRRKPFDEIGGPAFRIMWAVHNGTRPPLIKNLPKPIESLMTRCWSKDPSQRPSMEEIVKIMTHLMRYFPGADEPLQYPCQYSDEGQSNSATSTGSFMDIASTNTSNKSDTNMEQVPATNDTIKRLESKLLKNQAKQQSESGRLSLGASRGSSVESLPPTSEGKRMSADMSEIEARIAATTGNGQPRRRSIQDLTVTGTEPGQVSSRSSSPSVRMITTSGPTSEKPTRSHPWTPDDSTDTNGSDNSIPMAYLTLDHQLQPLAPCPNSKESMAVFEQHCKMAQEYMKVQTEIALLLQRKQELVAELDQDEKDQQNTSRLVQEHKKLLDENKSLSTYYQQCKKQLEVIRSQQQKRQGTS
notes: also called pGEX-4T-1-GST-HA-TAK1; MAP3K7
Turning to B1, the binding result in assay [1] is given as “binds”.

B2: Flag-TAK1, immunopurified (enzyme, UniProt O43318-2 1-579, looked up)
chain: B1 chain
notes: Probably expressed in HEK-293T cells like the other Flag constructs; also called MAP3K7; source: immunopurified, eluted with FLAG peptide
Consider B2, for which the binding result with GST-HA-TBC1D25 is reported as “binds”.
